Laboratory results published in patent US20110201118.

Columns and labels:
[1] = test system: TAL/GFP-R dTALEN (synthetic construct); experiment: cell_activity; settings: paired with TAL/GFP-L; 5/10 clones at 0.5 ug/well in HEK293T; 0/4 without TALEN
[2] = test system: TAL/GFP-L dTALEN (synthetic construct); experiment: cell_activity; settings: paired with TAL/GFP-R; 5/10 clones at 0.5 ug/well in HEK293T; 0/4 without TALEN

eGFP target, TAL/GFP-R half-site
activity (% clones with deletions) [1]: 50

eGFP target, TAL/GFP-L half-site
activity (% clones with deletions) [2]: 50
